Results: patent US20090311253A1 (AbbVie / Abbott, published 2009)
Several values for one entry are separate records, joined by “and”; a condition that tells them apart may be missing. Equal values may be shown once. Each block holds one binder with its values, some of them ahead of it.

How the values were obtained:
Recombinant Human IL-9 = Recombinant Human IL-9 (human, UniProt P15248 19-144); experiment: Biacore SPR
Experimental: (§1) The BIACORE assay (Biacore, Inc, Piscataway, N.J.) determines the affinity of antibodies or DVD-Ig with kinetic measurements of on-rate and off-rate constants. Binding of antibodies or DVD-Ig to a target antigen (for example, a purified recombinant target antigen) is determined by surface plasmon resonance-based measurements with a BiacoreR 1000 or 3000 instrument (Biacore® AB, Uppsala, Sweden) using running HBS-EP (10 mM HEPES [pH 7.4], 150 mM NaCl, 3 mM EDTA, and 0.005% surfactant P20) at 25° C. All chemicals are obtained from Biacore® AB (Uppsala, Sweden) or otherwise from a different source as described in the text. For example, approximately 5000 RU of goat anti-mouse IgG, (Fcγ), fragment specific polyclonal antibody (Pierce Biotechnology Inc, Rockford, Ill.) diluted in 10 mM sodium acetate (pH 4.5) is directly immobilized across a CM5 research grade biosensor chip using a standard amine coupling kit according to manufacturer's instructions and procedures at 25 μg/ml. Unreacted moieties on the biosensor surface are blocked with ethanolamine. Modified carboxymethyl dextran surface in flowcell 2 and 4 is used as a reaction surface. Unmodified carboxymethyl dextran without goat anti-mouse IgG in flow cell 1 and 3 is used as the reference surface. For kinetic analysis, rate equations derived from the 1:1 Langmuir binding model are fitted simultaneously to association and dissociation phases of all eight injections (using global fit analysis) with the use of Biaevaluation 4.0.1 software. Purified antibodies or DVD-Ig are diluted in HEPES-buffered saline for capture across goat anti-mouse IgG specific reaction surfaces. Antibodies or DVD-Ig to be captured as a ligand (25 μg/ml) are injected over reaction matrices at a flow rate of 5 μl/min. The association and dissociation rate constants, kₒₙ (M⁻¹s⁻¹) and koff (s⁻¹) are determined under a continuous flow rate of 25 μl/min. Rate constants are derived by making kinetic binding measurements at different antigen concentrations ranging from […]. The equilibrium dissociation constant (M) of the reaction between antibodies or DVD-Igs and the target antigen is then calculated from the kinetic rate constants by the following formula: KD=koff/kₒₙ. Binding is recorded as a function of time and kinetic rate constants are calculated.

IL-6R on cells [1] = biological target: T1, IL-6R on cells (UniProt P08887 20-468, limits assumed); experiment: cell-based or functional assay
T1 sequence (looked up): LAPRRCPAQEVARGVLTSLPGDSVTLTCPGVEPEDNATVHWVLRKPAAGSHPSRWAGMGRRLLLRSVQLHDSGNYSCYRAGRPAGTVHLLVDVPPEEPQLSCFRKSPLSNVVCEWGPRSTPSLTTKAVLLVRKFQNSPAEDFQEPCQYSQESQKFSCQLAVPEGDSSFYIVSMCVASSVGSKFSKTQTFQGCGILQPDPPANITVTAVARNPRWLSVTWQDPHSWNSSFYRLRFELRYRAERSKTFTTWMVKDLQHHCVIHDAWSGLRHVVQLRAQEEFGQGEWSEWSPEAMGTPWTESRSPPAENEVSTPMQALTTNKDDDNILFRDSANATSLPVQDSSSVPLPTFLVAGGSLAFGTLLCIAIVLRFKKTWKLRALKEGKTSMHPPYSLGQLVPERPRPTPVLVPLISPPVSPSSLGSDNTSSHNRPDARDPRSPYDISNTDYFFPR

[2] = biological target: T2, Recombinant Human IL-6 sR (human, UniProt P08887 20-358, limits assumed); experiment: Biacore SPR
T2 construct: domain: IL-6 sR; soluble receptor; also called IL-6R
T2 sequence (looked up): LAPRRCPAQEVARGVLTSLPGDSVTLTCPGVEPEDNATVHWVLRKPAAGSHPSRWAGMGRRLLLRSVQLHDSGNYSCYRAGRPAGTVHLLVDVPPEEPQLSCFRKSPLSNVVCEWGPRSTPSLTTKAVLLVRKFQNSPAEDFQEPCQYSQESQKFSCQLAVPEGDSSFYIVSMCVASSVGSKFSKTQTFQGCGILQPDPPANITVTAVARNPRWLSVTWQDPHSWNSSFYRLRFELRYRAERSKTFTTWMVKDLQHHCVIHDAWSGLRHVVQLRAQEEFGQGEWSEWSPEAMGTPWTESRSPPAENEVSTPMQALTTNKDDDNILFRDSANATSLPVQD
Experimental: as §1

[3] = biological target: T2, Recombinant Human IL-6 sR; experiment: direct bind ELISA
Experimental: (§2) Enzyme Linked Immunosorbent Assays to screen for antibodies that bind a desired target antigen were performed as follows. High bind ELISA plates (Corning Costar # 3369, Acton, Mass.) were coated with 100 μL/well of 10 μg/ml of desired target antigen (R&D Systems, Minneapolis, Minn.) or desired target antigen extra-cellular domain/FC fusion protein (R&D Systems, Minneapolis, Minn.) or monoclonal mouse anti-polyhistidine antibody (R&D Systems # MAB050, Minneapolis, Minn.) in phosphate buffered saline (10×PBS, Abbott Bioresearch Center, Media Prep# MPS-073, Worcester, Mass.) overnight at 4° C. Plates were washed four times with PBS containing 0.02% Tween 20. Plates were blocked by the addition of 300 μL/well blocking solution (non-fat dry milk powder, various retail suppliers, diluted to 2% in PBS) for ½ hour at room temperature. Plates were washed four times after blocking with PBS containing 0.02% Tween 20.
(§3) Plates were washed 4 times with PBS containing 0.02% Tween 20.
(§4) One hundred microliters of enhanced TMB solution (Neogen Corp. #308177, K Blue, Lexington, Ky.) was added to each well and incubated for 10 minutes at room temperature. The reaction was stopped by the addition of 50 μL 1N sulphuric acid. Plates were read spectrophotometrically at a wavelength of 450 nm.

IL-6R on cells [4] = biological target: T1, IL-6R on cells; experiment: flow cytometry on cells, 2 µg/mL
Experimental: Stable cell lines overexpressing a cell-surface antigen of interest or human tumor cell lines were harvested from tissue culture flasks and resuspended in phosphate buffered saline (PBS) containing 5% fetal bovine serum (PBS/FBS). Prior to staining, human tumor cells were incubated on ice with (100 μl) human IgG at 5 μg/ml in PBS/FCS. 1−5×10⁵ cells were incubated with antibody or DVD-Ig (2 μg/mL) in PBS/FBS for 30-60 minutes on ice. […] After 30 minutes incubation on ice, cells were washed twice and resuspended in PBS/FBS. Fluorescence was measured using a Becton Dickinson FACSCalibur (Becton Dickinson, San Jose, Calif.).
The geometric mean is the n root of the multiplication product of n fluorescent signals (a1×a2×a3 . . . an). With log-transformed data the geometric mean is used to normalize the weighting of the data distribution.

[5] = biological target: T3, Recombinant Human TRANCE/RANKL/TNFSF 11 (human, UniProt O14788 69-317); experiment: direct bind ELISA
T3 construct: extracellular domain
T3 sequence (looked up): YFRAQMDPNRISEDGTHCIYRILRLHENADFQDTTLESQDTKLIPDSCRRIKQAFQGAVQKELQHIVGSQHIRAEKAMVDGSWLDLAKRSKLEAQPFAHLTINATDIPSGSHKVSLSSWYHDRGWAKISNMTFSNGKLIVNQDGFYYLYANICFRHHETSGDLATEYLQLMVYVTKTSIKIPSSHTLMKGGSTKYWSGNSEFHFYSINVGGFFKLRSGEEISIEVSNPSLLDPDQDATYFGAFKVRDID
Experimental: as §2, §3, §4

Recombinant Human IL-4 [6] = biological target: T4, Recombinant Human IL-4 (human, UniProt P05112 25-153); experiment: cell-based or functional assay
T4 sequence (looked up): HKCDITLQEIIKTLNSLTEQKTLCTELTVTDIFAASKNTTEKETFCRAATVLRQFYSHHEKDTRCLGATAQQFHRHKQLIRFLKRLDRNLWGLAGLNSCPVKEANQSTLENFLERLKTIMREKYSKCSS

Recombinant Human IL-4 [7] = biological target: T4, Recombinant Human IL-4; experiment: Biacore SPR
Experimental: as §1

Recombinant Human IL-4 [8] = biological target: T4, Recombinant Human IL-4; experiment: direct bind ELISA
Experimental: as §2, §3, §4

Recombinant Human IL-13 [9] = biological target: T5, Recombinant Human IL-13 (human, UniProt P35225 35-146, limits assumed); experiment: Biacore SPR
Experimental: as §1

Recombinant Human IL-13 [10] = biological target: T5, Recombinant Human IL-13; experiment: cell-based or functional assay
Recombinant Human IL-1β [11] = biological target: T6, Recombinant Human IL-1β (human, UniProt P01584 117-269); experiment: cell-based or functional assay
[12] = biological target: T3, Recombinant Human TRANCE/RANKL/TNFSF 11; experiment: Biacore SPR
Experimental: as §1

Recombinant Human IL-1β [13] = biological target: T6, Recombinant Human IL-1β; experiment: Biacore SPR
Experimental: as §1

Recombinant Human IL-1β [14] = biological target: T6, Recombinant Human IL-1β; experiment: direct bind ELISA
Experimental: as §2, §3, §4

Chain of Recombinant Human IL-9 (P15248 19-144 limits assumed): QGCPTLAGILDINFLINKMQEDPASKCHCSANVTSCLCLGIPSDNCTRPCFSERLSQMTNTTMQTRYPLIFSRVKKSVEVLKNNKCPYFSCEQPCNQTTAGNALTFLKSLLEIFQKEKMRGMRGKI
T5 sequence (P35225 35-146 limits assumed): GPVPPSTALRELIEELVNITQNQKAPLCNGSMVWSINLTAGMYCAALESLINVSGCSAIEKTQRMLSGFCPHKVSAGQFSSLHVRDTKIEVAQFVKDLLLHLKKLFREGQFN

- Kd (Recombinant Human IL-9): 0.00993 nM
- koff (Recombinant Human IL-9): 5.62e-05 s⁻¹
- kon (Recombinant Human IL-9): 5.66e+06 M⁻¹ s⁻¹
B1: AB056 (antibody, human IgG1, kappa, V domains shown)
VH: QVQLQQSGAELMKPGASVKLSCKATGYTFTGSWIEWIKQRPGHGLEWIGQILPGSGSAYYNEKFKGKATFTADTSSKTVYIQLISLTTEDSAIYYCAREDNYGSSSLAYWGQGTLLTVSA
VL: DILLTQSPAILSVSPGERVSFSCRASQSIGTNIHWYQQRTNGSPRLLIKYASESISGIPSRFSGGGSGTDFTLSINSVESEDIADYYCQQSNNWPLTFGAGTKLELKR
notes: vectors V1 and V2

- IL-6 induced pSTAT3 in TF-1 cells, EC50 (IL-6R on cells [1]): 0.07 nM
- Kd [2]: 0.614 nM
- koff [2]: 0.000206 s⁻¹
- kon [2]: 336000 M⁻¹ s⁻¹
- EC50 [3]: 1.42 nM and 1.24 nM and 1.31 nM
- FACS Geometric Mean (IL-6R on cells [4]): 5.94
B2: AB054 (antibody, human IgG1, kappa, V domains shown)
VH: EVQLQESGPGLVRPSQTLSLTCTVSGYSITSDHAWSWVRQPPGRGLEWIGYISYSGITTYNPSLKSRVTMLRDTSKNQFSLRLSSVTAADTAVYYCARSLARTTAMDYWGQGSLVTVSS
VL: DIQMTQSPSSLSASVGDRVTITCRASQDISSYLNWYQQKPGKAPKLLIYYTSRLHSGVPSRFSGSGSGTDFTFTISSLQPEDIATYYCQQGNTLPYTFGQGTKVEIKR
notes: vectors V1 and V2; also called anti-IL-6R parent antibody

- IL-6 induced pSTAT3 in TF-1 cells, EC50 (IL-6R on cells [1]): 0.16 nM
- EC50 [5]: 0.53 nM
- EC50 [3]: 0.96 nM
- FACS Geometric Mean (IL-6R on cells [4]): 8.43
B3: DVD129 (bispecific antibody, human IgG1, kappa)
heavy: not shown
light: DIQMTQSPSSLSASVGDRVTITCRASQDISSYLNWYQQKPGKAPKLLIYYTSRLHSGVPSRFSGSGSGTDFTFTISSLQPEDIATYYCQQGNTLPYTFGQGTKVEIKRTVAAPEIVLTQSPGTLSLSPGERATLSCRASQSVRGRYLAWYQQKPGQAPRLLIYGASSRATGIPDRFSGSGSGTDFTLTISRLEPEDFAVFYCQQYGSSPRTFGQGTKVEIKRTVAAPSVFIFPPSDEQLKSGTASVVCLLNNFYPREAKVQWKVDNALQSGNSQESVTEQDSKDSTYSLSSTLTLSKADYEKHKVYACEVTHQGLSSPVTKSFNRGEC
notes: vectors V1, V2; also called IL-6R and RANKL DVD-Ig

- IL-4 Neutralization Assay EC50 (A549 cells, hTARC) (Recombinant Human IL-4 [6]): 0.21 nM
- Kd (Recombinant Human IL-4 [7]): 0.0219 nM
- koff (Recombinant Human IL-4 [7]): 0.00013 s⁻¹
- kon (Recombinant Human IL-4 [7]): 5.92e+06 M⁻¹ s⁻¹
- EC50 (Recombinant Human IL-4 [8]): 5.81 nM
B4: AB027 (antibody, human IgG1, kappa, V domains shown)
VH: QVTLRESGPALVKPTQTLTLTCTFSGFSLSTSGMGVSWIRQPPGKGLEWLAHIYWDDDKRYNPSLKSRLTISKDTSRNQVVLTMTNMDPVDTATYYCARRETVFYWYFDVWGRGTPVTVSS
VL: DIVLTQSPSSLSASVGDRVTITCKASQSVDYDGDSYMNWYQQKPGKAPKLLIYAASNLESGIPSRFSGSGSGTDFTFTISSLQPEDIATYYCQQSNEDPPTFGQGTKVEIKR
notes: vectors V1 and V2; also called anti-IL-4 parent antibody

- kon (Recombinant Human IL-13 [9]): 2.14e+06 M⁻¹ s⁻¹
- IL-13 Neutralization Assay EC50 (A549 cells, hTARC) (Recombinant Human IL-13 [10]): 0.1 nM
B5: AB051 (antibody, human IgG1, kappa, V domains shown)
VH: EVTLRESGPGLVKPTQTLTLTCTLYGFSLSTSDMGVDWIRQPPGKGLEWLAHIWWDDVKRYNPALKSRLTISKDTSKNQVVLKLTSVDPVDTATYYCARTVSSGYIYYAMDYWGQGTLVTVSS
VL: DIQMTQSPSSLSASVGDRVTISCRASQDIRNYLNWYQQKPGKAPKLLIFYTSKLHSGVPSRFSGSGSGTDYTLTISSLQPEDIATYYCQQGLTPPLTFGGGTKVEIKR
notes: vectors V1 and V2

- IL-1β Neutralization Assay EC50 (MRC5 cells, hIL-8) (Recombinant Human IL-1β [11]): 4.29 nM
- Kd [12]: < 0.00877 nM
- koff [12]: < 1e-06 s⁻¹
- kon [12]: 114000 M⁻¹ s⁻¹
- Kd (Recombinant Human IL-1β [13]): < 0.117 nM
- koff (Recombinant Human IL-1β [13]): < 1e-06 s⁻¹
- kon (Recombinant Human IL-1β [13]): 8520 M⁻¹ s⁻¹
- EC50 [5]: 0.4 nM
- EC50 (Recombinant Human IL-1β [14]): 4460 nM
B6: DVD126 (bispecific antibody, human IgG1, kappa)
heavy: not shown
light: EIVLTQSPGTLSLSPGERATLSCRASQSVRGRYLAWYQQKPGQAPRLLIYGASSRATGIPDRFSGSGSGTDFTLTISRLEPEDFAVFYCQQYGSSPRTFGQGTKVEIKRTVAAPEIVLTQSPDFQSVTPKEKVTITCRASQSIGSSLHWYQQKPDQSPKLLIKYASQSFSGVPSRFSGSGSGTDFTLTINSLEAEDAAAYYCHQSSSLPFTFGPGTKVDIKRTVAAPSVFIFPPSDEQLKSGTASVVCLLNNFYPREAKVQWKVDNALQSGNSQESVTEQDSKDSTYSLSSTLTLSKADYEKHKVYACEVTHQGLSSPVTKSFNRGEC
notes: outer AB018, inner AB032; vectors V1, V2
